Legend:
[1] = target: T1, Fc-tagged SARS-CoV-2 receptor-binding domain (RBD), wild type (SARS-CoV-2, Wuhan-Hu-1 (QHD43416.1), UniProt P0DTC2); experiment: BLI; Fc-tagged RBD (20 ug/ml) loaded on anti-hIgG Fc Capture (AHC) biosensors, Fab in solution at four to five concentrations; Octet Red96e, room temperature, 1x kinetics buffer (1x PBS pH 7.4, 0.01% w/v BSA, 0.002% v/v Tween 20); 1:1 binding model; conditions: both partners purified
T1 construct: also called SARS-CoV-2 RBD; WT RBD; not shown: Fc, C-terminal, kept

[2] = target: T2, Fc-tagged SARS-CoV-2 spike receptor-binding domain (RBD) (SARS-CoV-2, Wuhan-Hu-1 (QHD43416.1), UniProt P0DTC2); experiment: BLI; Fc-tagged RBD (20 ug/ml) loaded on anti-hIgG Fc Capture (AHC) biosensors, Fab in solution; room temperature; 1x PBS pH 7.4, 0.01% BSA, 0.002% Tween 20; 1:1 binding model; conditions: both partners purified
T2 construct: also called SARS-CoV-2 RBD; Fc-tagged RBD; source: Expi293F, transiently transfected, purified (KanCapA protein A resin); not shown: Fc (after an SSSSG linker), C-terminal, kept

| Binder | Kd [1] [nM] | Kd [2] [nM] |
| --- | --- | --- |
| COV107-23 F58Y Fab (Fab, V domains shown) VH: EVQLVESGGGLIQPGGSLRLSCAASGFTVSSNYMSWVRQAPGKGLEWVSVIYSGGSTYYADSVKGRFTISRDNSKNTLYLQMNSLRAEDTAVYYCARDLGTGLFDYWGQGTLVTVSS VL: DIQLTQSPSFLSASVGDRVTITCRASQGISSYLAWYQQKPGKAPKLLIYAASTLQSGVPSRFSGSGSGTEFTLTISSLQPEDFATYYCQQLDSYPPGTFGPGTKVDIK | 362 ± 18 | – |
| CC12.3 F58Y Fab (Fab, V domains shown) VH: QVQLVESGGGLIQPGGSLRLSCAASGFTVSSNYMSWVRQAPGKGLEWVSVIYSGGSTYYADSVKGRFTISRDNSKSTLYLQMNSLRVEDTAVYYCARDFGDFYFDYWGQGTLVTVSS VL: not shown | 97 ± 2 | – |
| CC12.3 Fab, Y58 variant (heavy chain F58Y) (Fab, V domains shown, also called CC12.3 Y58) VH: QVQLVESGGGLIQPGGSLRLSCAASGFTVSSNYMSWVRQAPGKGLEWVSVIYSGGSTYYADSVKGRFTISRDNSKSTLYLQMNSLRVEDTAVYYCARDFGDFYFDYWGQGTLVTVSS VL: not shown | – | 97 |
| COVA2-20 Y58F Fab (Fab, V domains shown) VH: EVQLVESGGGLIQPGGSLRLSCAASGFTVSSNYMSWVRQAPGKGLEWVSVIYSGGSTFYADSVKGRFTISRDNSKNTLYLQMNSLRAEDTAVYYCASPLLLTPPDYYYYMDVWGKGTMVTVSS VL: DVVMTQSPSSLSVSVGDRVTITCRASQGIRNDLGWYQQKPGKAPKRLIYAASSLQSGVPSRFSGSGSGTEFTLTISSLQPEDFATYYCLQHNSYLWTFGQGTKLEIK | 286 ± 17 | – |
| COVA2-20 Fab, F58 variant (heavy chain Y58F) (Fab, V domains shown, also called COVA2-20 F58) VH: EVQLVESGGGLIQPGGSLRLSCAASGFTVSSNYMSWVRQAPGKGLEWVSVIYSGGSTFYADSVKGRFTISRDNSKNTLYLQMNSLRAEDTAVYYCASPLLLTPPDYYYYMDVWGKGTMVTVSS VL: DVVMTQSPSSLSVSVGDRVTITCRASQGIRNDLGWYQQKPGKAPKRLIYAASSLQSGVPSRFSGSGSGTEFTLTISSLQPEDFATYYCLQHNSYLWTFGQGTKLEIK | – | 286 |
